This test addresses T161 phosphorylated CDK1 (full-length human CDK1) (human, UniProt P06493 1-297, phosphothreonine at T161). Kind of test: SEC.

B1: Human cyclin B1, residues 165-433 carrying the C167S/C238S/C350S mutations (domain or fragment)
chain: NLSSEYVKDIYAYLRQLEEEQAVRPKYLLGREVTGNMRAILIDWLVQVQMKFRLLQETMYMTVSIIDRFMQNNSVPKKMLQLVGVTAMFIASKYEEMYPPEIGDFAFVTDNTYTKHQIRQMEMKILRALNFGLGRPLPLHFLRRASKIGEVDVEQHTLAKYLMELTMLDYDMVHFPPSQIAAGAFSLALKILDNGEWTPTLQHYLSYTEESLLPVMQHLAKNVVMVNQGLTKHMTVKNKYATSKHAKISTLPQLNSALVQDLAKAVAKV
On to B1, for which the binding result was “binds”.

The values are drawn from doi:10.1101/2022.05.24.493195 (bioRxiv, 2022).
